The text below walks through data of PMC8864165, “Functional Effects of ARV-1502 Analogs Against Bacterial Hsp70 and Implications for Antimicrobial Activity” (Frontiers in Chemistry, 2022).

Sequences and labels used below:
B1: unnamed (parent)
chain 1: RPDKPRPYLPRPRPPRPVR
chain 2: not shown

Variants of B1 are the subject of the test. Put plainly: competitive fluorescence polarization. Particulars: with partner chain of the complex shown; S. aureus DnaK 16 µmol/L; unlabeled peptide 35 µmol/L. (In general: In fluorescence polarisation assays a small probe gives low polarisation when free and higher when bound to something large.)
Regarding chain 1 D3K R11L, the ratio to parent is < 1.
Regarding chain 1 D3K K4L, the ratio to parent was < 1.
With chain 1 D3K K4S the figure was < 1; with chain 1 D3K K4F, < 1; with chain 1 D3F K4F R11L, < 1.
Next, chain 1 D3F K4F R11F: < 1; chain 1 D3F K4F P10S: < 1; chain 1 D3F K4F P10D: < 1.
With chain 1 D3S K4S Y8L the figure was < 1.
Turning to chain 1 D3S K4S R11L, the ratio to parent was < 1.
For chain 1 Y8L, the ratio to parent was < 1.
